Test results taken from patent US20240209086A1 (PETMEDIX, published 2024).
Substitutions are numbered along the chain they refer to. Each block holds one binder with its values, some of them ahead of it.

Biological target: canine CD3 on canine T cells (canine PBMC) (canine, UniProt P27597 22-202)
Test: cell-based or functional assay

Sequence of canine CD3 on canine T cells (canine PBMC) (P27597 22-202 limits assumed, chain 1 of 3): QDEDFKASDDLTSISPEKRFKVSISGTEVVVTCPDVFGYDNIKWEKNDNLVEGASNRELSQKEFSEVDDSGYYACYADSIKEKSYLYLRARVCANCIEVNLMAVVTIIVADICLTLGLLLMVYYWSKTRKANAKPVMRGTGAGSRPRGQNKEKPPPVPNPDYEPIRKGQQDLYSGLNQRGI
Sequence of canine CD3 on canine T cells (canine PBMC) (chain, as listed by the source limits assumed, chain 2 of 3): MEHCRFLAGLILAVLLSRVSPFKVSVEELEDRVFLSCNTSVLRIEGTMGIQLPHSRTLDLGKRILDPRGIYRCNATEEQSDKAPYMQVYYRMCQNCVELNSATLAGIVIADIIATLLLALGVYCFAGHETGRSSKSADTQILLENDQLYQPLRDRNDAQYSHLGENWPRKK
Sequence of canine CD3 on canine T cells (canine PBMC) (chain, as listed by the source limits assumed, chain 3 of 3): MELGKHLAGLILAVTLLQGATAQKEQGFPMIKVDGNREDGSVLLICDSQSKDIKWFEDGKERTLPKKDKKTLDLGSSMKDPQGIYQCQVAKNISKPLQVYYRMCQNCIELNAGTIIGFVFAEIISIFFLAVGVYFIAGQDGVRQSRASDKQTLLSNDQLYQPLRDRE

B1: PMX158 (monospecific anti-canine CD3, canine IgG-B effector function deficient Fc) (antibody, V domains shown)
VH: ELTLQESGPGLVKPSQTLSLTCVVSGGSVTRSYYWNWIRQRPGRGLEWMGYWTGTTNYNPAFQGRISITADTAKNQCSLQLSSMTTEDTAVYYCAREGGKLLGAFGHWGQGTLVTVSS
VL: SYVLTQLPSKNVTLKQPAHITCGGDKIGSKSVHWYQQKLGQAPVLIIYYDSSRLTGIPERFSGANSGNTATLTISGALAEDEADYYCQVWDSSAKASVFGGGTHLTVL
CD25 Activation, Day 6, IS: 13.1
CD25 Activation, Day 6, PB: 9.65
CD25 Activation, Day 9, IS: 5.45
CD25 Activation, Day 9, PB: 12.3
IFNy Concentration pg/ml, Day 6, IS: 48.2 pg/mL
IFNy Concentration pg/ml, Day 9, IS: 88.3 pg/mL
IFNy Concentration pg/ml, Day 9, PB: 2440 pg/mL
Ki67 Proliferation, Day 6, IS: 2.63
Ki67 Proliferation, Day 6, PB: 0.54
Ki67 Proliferation, Day 9, IS: 0.45
Ki67 Proliferation, Day 9, PB: 0

B3: PMX163 (monospecific anti-canine CD3, canine IgG-B effector function deficient Fc) (antibody, V domains shown)
VH: ELALQESGPGLVRPSQTLSLTCVVSGGSVTRSYYWNWIRQRPGRGLEWMGYWTGTTIYNPAFQGRISITVDTAKNQFSLHLISMTTEDTAVYYCGREGGSSLGAIAYWGQGTRVTVSS
VL: B1 VL with K26N, L54P, S97A
CD25 Activation, Day 6, IS: 13.3
CD25 Activation, Day 6, PB: 18.8
CD25 Activation, Day 9, IS: 10.1
CD25 Activation, Day 9, PB: 14.6
IFNy Concentration pg/ml, Day 6, IS: 56.2 pg/mL
IFNy Concentration pg/ml, Day 9, IS: 145 pg/mL
IFNy Concentration pg/ml, Day 9, PB: 3770 pg/mL
Ki67 Proliferation, Day 6, IS: 4.91
Ki67 Proliferation, Day 6, PB: 0.3
Ki67 Proliferation, Day 9, IS: 0.71
Ki67 Proliferation, Day 9, PB: 0.75

B4: PMX159 (monospecific anti-canine CD3, canine IgG-B effector function deficient Fc) (antibody, V domains shown)
VH: ELTLQESGPGLVKPSQTLSLTCVVSGGSVTRSYYWNWIRQRPGRGLEWMGYWTGSTIYNPTFQGRISITADTAKSQFSLQLRSMTTEDTAMYFCAREGGKSLGAFAYWGQGTLVTVSS
VL: B1 VL with S31N, L45M, L54P, S97A
CD25 Activation, Day 6, IS: 11.3
CD25 Activation, Day 6, PB: 11.5
CD25 Activation, Day 9, IS: 9.13
CD25 Activation, Day 9, PB: 13.1
IFNy Concentration pg/ml, Day 6, IS: 137 pg/mL
IFNy Concentration pg/ml, Day 9, IS: 262 pg/mL
IFNy Concentration pg/ml, Day 9, PB: 3050 pg/mL
Ki67 Proliferation, Day 6, IS: 1.69
Ki67 Proliferation, Day 6, PB: 0.37
Ki67 Proliferation, Day 9, IS: 1.28
Ki67 Proliferation, Day 9, PB: 0

B5: PMX162 (monospecific anti-canine CD3, canine IgG-B effector function deficient Fc) (antibody)
heavy: EMQLVESGGDLVKPGGSLRLSCVASGFTFSTYHMSWVRQAPGKGLQWVAYSNSGGTRTYYADAVKGRFTISRDNVKNTLYLQMNSLRAEDTAVYYCASEGSGGGRYGFKDYGMDYWGHGTSLFVSTASTTAPSVFPLAPSCGSTSGSTVALACLVSGYFPEPVTVSWNSGSLTSGVHTFPSVLQSSGLYSLSSMVTVPSSRWPSETFTCNVAHPASKTKVDKPVPKRENGRVPRPPDCPKCPAPESLGGPSVFIFPPKPKDTLLIARTPEVTCVVVDLGREDPEVQISWFVDGKQMQTAKTQPREEQFNGTYRVVSVLPIGHQDWLKGKQFTCKVNHIGLPSPIERTISKARGQAHQPSVYVLPPSREELSKNTVSLTCLIKDFFPPDIDVEWQSNGQQEPESKYRTTPPQLDEDGSYFLYSKLSVDKSRWQRGDTFICAVMHEALHNHYTQKSLSHSPGK
VL: B1 VL with K26N, L54P, S97W, G101E, H104Q
CD25 Activation, Day 6, IS: 16
CD25 Activation, Day 6, PB: 8.64
CD25 Activation, Day 9, IS: 8.75
CD25 Activation, Day 9, PB: 10.4
IFNy Concentration pg/ml, Day 6, IS: 61.1 pg/mL
IFNy Concentration pg/ml, Day 9, IS: 89.2 pg/mL
IFNy Concentration pg/ml, Day 9, PB: 330 pg/mL
Ki67 Proliferation, Day 6, IS: 1.73
Ki67 Proliferation, Day 6, PB: 0.36
Ki67 Proliferation, Day 9, IS: 0.51
Ki67 Proliferation, Day 9, PB: 0.43

More lines, now with the values ahead:

CD25 Activation, Day 6, IS: 10.6
CD25 Activation, Day 6, PB: 9.42
CD25 Activation, Day 9, IS: 7.14
CD25 Activation, Day 9, PB: 5.98
IFNy Concentration pg/ml, Day 6, IS: 36.5 pg/mL
IFNy Concentration pg/ml, Day 9, IS: 114 pg/mL
IFNy Concentration pg/ml, Day 9, PB: 1460 pg/mL
Ki67 Proliferation, Day 6, IS: 0.84
Ki67 Proliferation, Day 6, PB: 0.12
Ki67 Proliferation, Day 9, IS: 1.87
Ki67 Proliferation, Day 9, PB: 0.33
B2: PMX160 (monospecific anti-canine CD3, canine IgG-B effector function deficient Fc) (antibody)
heavy: EVQMVESGGDLVKPGGSLRFSCVASGFTFSSYHMSWVRQAPGKGLQWVAYINSGGSRTSYADAVKGRFTISRDNAKNTLYLQMNSLRAEDTAVYYCASGRSPPPLGSFDYGLDYWGHGTSLFVSSASTTAPSVFPLAPSCGSTSGSTVALACLVSGYFPEPVTVSWNSGSLTSGVHTFPSVLQSSGLYSLSSMVTVPSSRWPSETFTCNVAHPASKTKVDKPVPKRENGRVPRPPDCPKCPAPESLGGPSVFIFPPKPKDTLLIARTPEVTCVVVDLGREDPEVQISWFVDGKQMQTAKTQPREEQFNGTYRVVSVLPIGHQDWLKGKQFTCKVNHIGLPSPIERTISKARGQAHQPSVYVLPPSREELSKNTVSLTCLIKDFFPPDIDVEWQSNGQQEPESKYRTTPPQLDEDGSYFLYSKLSVDKSRWQRGDTFICAVMHEALHNHYTQKSLSHSPGK
VL: B1 VL with K26N, L54P, S97W, G101E, H104Q

CD25 Activation, Day 6, IS: 12.1
CD25 Activation, Day 6, PB: 13.4
CD25 Activation, Day 9, IS: 10.4
CD25 Activation, Day 9, PB: 23.6
IFNy Concentration pg/ml, Day 6, IS: 74.6 pg/mL
IFNy Concentration pg/ml, Day 9, IS: 108 pg/mL
IFNy Concentration pg/ml, Day 9, PB: 1370 pg/mL
Ki67 Proliferation, Day 6, IS: 1.67
Ki67 Proliferation, Day 6, PB: 0.26
Ki67 Proliferation, Day 9, IS: 1.3
Ki67 Proliferation, Day 9, PB: 0
B6: PMX165 (monospecific anti-canine CD3, canine IgG-B effector function deficient Fc) (antibody)
heavy: EVQLVESGGDLVKPGGSLRLSCVASGFNFSASHMSWVRQAPGKGLQWVAYITNAGGRISYADAVKGRFTISRDNAKNTLYLQMSSLRVEDTAVYYCATERPGRRMGLKDYGMDYWGHGTSLFVSSASTTAPSVFPLAPSCGSTSGSTVALACLVSGYFPEPVTVSWNSGSLTSGVHTFPSVLQSSGLYSLSSMVTVPSSRWPSETFTCNVAHPASKTKVDKPVPKRENGRVPRPPDCPKCPAPESLGGPSVFIFPPKPKDTLLIARTPEVTCVVVDLGREDPEVQISWFVDGKQMQTAKTQPREEQFNGTYRVVSVLPIGHQDWLKGKQFTCKVNHIGLPSPIERTISKARGQAHQPSVYVLPPSREELSKNTVSLTCLIKDFFPPDIDVEWQSNGQQEPESKYRTTPPQLDEDGSYFLYSKLSVDKSRWQRGDTFICAVMHEALHNHYTQKSLSHSPGK
VL: B1 VL with K26N, L54P

CD25 Activation, Day 6, IS: 9.79
CD25 Activation, Day 6, PB: 20.5
CD25 Activation, Day 9, IS: 8.41
CD25 Activation, Day 9, PB: 9.23
IFNy Concentration pg/ml, Day 6, IS: 24.7 pg/mL
IFNy Concentration pg/ml, Day 9, IS: 223 pg/mL
IFNy Concentration pg/ml, Day 9, PB: 2110 pg/mL
Ki67 Proliferation, Day 6, IS: 0.84
Ki67 Proliferation, Day 6, PB: 1.13
Ki67 Proliferation, Day 9, IS: 1.83
Ki67 Proliferation, Day 9, PB: 0.16
B7: PMX178 (monospecific anti-canine CD3, canine IgG-B effector function deficient Fc) (antibody, V domains shown)
VH: B3 VH
VL: B1 VL with K26N, S29R, L54P, S97A

CD25 Activation, Day 6, IS: 8.5
CD25 Activation, Day 6, PB: 13.3
CD25 Activation, Day 9, IS: 9.37
CD25 Activation, Day 9, PB: 11.5
IFNy Concentration pg/ml, Day 6, IS: 56.7 pg/mL
IFNy Concentration pg/ml, Day 9, IS: 125 pg/mL
IFNy Concentration pg/ml, Day 9, PB: 1110 pg/mL
Ki67 Proliferation, Day 6, IS: 1.01
Ki67 Proliferation, Day 6, PB: 0.57
Ki67 Proliferation, Day 9, IS: 1.38
Ki67 Proliferation, Day 9, PB: 0.34
B8: PMX173 (monospecific anti-canine CD3, canine IgG-B effector function deficient Fc) (antibody)
heavy: B5 heavy with M2V, N52H, V75G
VL: B1 VL with K26N, L54P, S97W, G101E, H104Q
